Results taken from publication doi:10.1101/2024.12.05.626995 (bioRxiv, 2024).

Molecular target: T1, GST-tagged mature full-length GET3b (Arabidopsis thaliana, UniProt A1L4Y1 68-411)
T1 sequence: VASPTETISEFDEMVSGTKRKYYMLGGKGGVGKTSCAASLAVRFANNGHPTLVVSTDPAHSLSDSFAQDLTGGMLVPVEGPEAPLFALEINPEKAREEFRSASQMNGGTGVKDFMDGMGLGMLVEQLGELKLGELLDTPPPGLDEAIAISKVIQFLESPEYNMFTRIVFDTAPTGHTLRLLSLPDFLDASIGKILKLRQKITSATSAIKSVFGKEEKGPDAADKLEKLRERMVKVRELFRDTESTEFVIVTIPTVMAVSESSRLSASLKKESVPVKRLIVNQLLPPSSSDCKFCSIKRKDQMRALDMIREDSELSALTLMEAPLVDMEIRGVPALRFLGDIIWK
Assay: pull-down

B1: His-tagged C-terminal region of ALB3 (aa 350-462) (domain or fragment)
chain: VYLRKLGGAKPNMDENASKIISAGRAKRSIAQPDDAGERFRQLKEQEKRSKKNKAVAKDTVELVEESQSESEEGSDDEEEEAREGALASSTTSKPLPEVGQRRSKRSKRKRTV
- binding result: binds

B2: His-tagged C-terminal region of ALB4 (aa 334-499) (domain or fragment)
chain: VWLQKYGGAKNPVEKFTNLVTKEDKTQQIEKSFSEPLVQKSVSELKIPREKGGEKVTPECPKPGERFRLLKEQEAKRRREKEERQKAEAALSNQNTDKAHEQDEKSDTAIVAEDDKKTELSAVDETSDGTVAVNGKPSIQKDETTNGTFGIGHDTEQQHSHETEKR
- binding result: binds
